In article PMC12269619 (2025) one finds Kd data, which are given here for six molecules.

The chains are these.
B6: Biotinylated junctional peptide Pep21 (PfCSP peptide 21) (peptide)
peptide: NPDPNANPNVDPNAN
modifications: also: biotinylated, position not given here

Ends that are not written are not given here.

The target of assay [1] is PfCSPm. The experiment in a line: BLI; KD1. (Biolayer interferometry detects binding as a change in optical thickness at a sensor tip.)
The target in assay [2] is T1, Biotinylated junctional peptide NPDP19 (Plasmodium falciparum (isolate 3D7), also: biotinylated, position not given here).
T1 chain: KQPADGNPDPNANPNVDPN
Description: BLI.

In assay [3] the target is PfCSPm. The experiment in a line: BLI; KD2, second site.
Assay [4] has as its target B6. Description: BLI.
The next assay addresses P3-7. The experiment in a line: BLI.
Another assay addresses P3-17. The experiment in a line: BLI.
A further assay deals with P3-10. Description: BLI.
The target in another assay is P3-3. Description: BLI.
The next assay has as its target P3-45. The experiment in a line: BLI.
A further assay concerns the target P3-19. The experiment in a line: BLI.
Another assay addresses P3-9. The experiment in a line: BLI.

B1: m43.151 Fab (Fab, V domains shown)
VH: QVHLVQSGAEVKKPGASVKVSCKASGYTFTSYAIHWVRQAPGQRLEWMGWIKGGNGNTRYSQKFQDRVTITRDTSASTAYMELSSLRSEDTAVYYCALLTVITPDDAFDIWGQGTMVTVSS
VL: not shown
For the molecule B1, the Kd with PfCSPm [1] was 38.3 nM; in assay [2], 2.2 nM; with PfCSPm [3], 1700 nM.

B2: m42.127 Fab (Fab, V domains shown)
VH: QVQLVQSGAEVKKPGASVKVSCKASGYTFTSYAIHWVRQAPGQRLEWMGWIKAGNGNTRYSQKFQDRVTITRDTSASTAYMELSSLRSEDTAVYYCALLTVITPDDTFDIWGQGTMVTVSS
VL: not shown
Consider B2, for which the values for the Kd (with PfCSPm [1]; in assay [2]; with PfCSPm [3]) were 31.6 nM, 2.2 nM and 2000 nM, respectively.

B3: P3-42 Fab (m43.151 A100cR_H) (Fab, V domains shown)
VH: QVHLVQSGAEVKKPGASVKVSCKASGYTFTSYAIHWVRQAPGQRLEWMGWIKGGNGNTRYSQKFQDRVTITRDTSASTAYMELSSLRSEDTAVYYCALLTVITPDDRFDIWGQGTMVTVSS
VL: not shown
As for B3, the Kd in the assay with PfCSPm [1] turned out to be 13 nM; in [4] it was 14.5 nM; in assay [2], 2.6 nM; with PfCSPm [3], 3400 nM.

B4: P3-21 Fab (m42.127 T99R_H P100Q_H) (Fab, V domains shown)
VH: QVQLVQSGAEVKKPGASVKVSCKASGYTFTSYAIHWVRQAPGQRLEWMGWIKAGNGNTRYSQKFQDRVTITRDTSASTAYMELSSLRSEDTAVYYCALLTVIRQDDTFDIWGQGTMVTVSS
VL: not shown
Regarding B4, the equilibrium dissociation constant (Kd) is 20.2 nM with PfCSPm [1], 18 nM in assay [4], 2 nM in assay [2] and 1200 nM with PfCSPm [3].

B5: P3-43 Fab (m43.151 P100K_H) (Fab, V domains shown)
VH: QVHLVQSGAEVKKPGASVKVSCKASGYTFTSYAIHWVRQAPGQRLEWMGWIKGGNGNTRYSQKFQDRVTITRDTSASTAYMELSSLRSEDTAVYYCALLTVITKDDAFDIWGQGTMVTVSS
VL: not shown
As to B5, the figures for the dissociation constant Kd (in the assay with PfCSPm [1]; in assay [2]; in the assay with PfCSPm [3]) were 33.9 nM, 1.7 nM and 1700 nM, respectively.
With B6, the Kd stood at 24 nM in the assay with P3-7; 17.8 nM in the assay with P3-17; 20.4 nM in the assay with P3-10; 15.4 nM with P3-3; 19 nM in the assay with P3-45; 14.6 nM in the assay with P3-19. This molecule also yielded a Kd with P3-9 of 21.8 nM.

As usually defined, the Kd is the concentration at which binding is half-saturated. A low value points to tighter binding.
